Literature values in paper PMC6728138.

Legend:
[1] = biological target: PVIVIT peptide (synthetic construct)
AKAP79 (Homo sapiens) = AKAP79 (Homo sapiens) (UniProt P24588)
Sequence of AKAP79 (Homo sapiens) (P24588 whole entry): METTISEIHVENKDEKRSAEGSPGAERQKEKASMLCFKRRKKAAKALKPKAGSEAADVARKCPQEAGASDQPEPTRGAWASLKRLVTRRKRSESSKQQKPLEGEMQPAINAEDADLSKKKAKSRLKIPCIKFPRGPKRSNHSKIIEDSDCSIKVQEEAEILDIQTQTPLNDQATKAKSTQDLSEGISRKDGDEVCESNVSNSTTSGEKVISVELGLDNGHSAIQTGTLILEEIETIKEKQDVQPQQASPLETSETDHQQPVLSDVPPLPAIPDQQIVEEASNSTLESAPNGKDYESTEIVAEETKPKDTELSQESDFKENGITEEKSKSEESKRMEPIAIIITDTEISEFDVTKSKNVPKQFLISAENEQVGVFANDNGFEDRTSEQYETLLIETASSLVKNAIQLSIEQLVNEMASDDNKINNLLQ

Kd [1]: 500 nM | Kd (AKAP79 (Homo sapiens)): 500 nM
Substance: Calcineurin (from UniProt Q08209)
